T1: GST-PIF4 bHLH (Arabidopsis thaliana, UniProt Q8W2F3 257-306)
T1 chain: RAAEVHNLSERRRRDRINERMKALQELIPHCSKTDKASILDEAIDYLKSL

T2: GST-PIF5 (Arabidopsis thaliana, UniProt Q84LH8 1-444)
T2 sequence: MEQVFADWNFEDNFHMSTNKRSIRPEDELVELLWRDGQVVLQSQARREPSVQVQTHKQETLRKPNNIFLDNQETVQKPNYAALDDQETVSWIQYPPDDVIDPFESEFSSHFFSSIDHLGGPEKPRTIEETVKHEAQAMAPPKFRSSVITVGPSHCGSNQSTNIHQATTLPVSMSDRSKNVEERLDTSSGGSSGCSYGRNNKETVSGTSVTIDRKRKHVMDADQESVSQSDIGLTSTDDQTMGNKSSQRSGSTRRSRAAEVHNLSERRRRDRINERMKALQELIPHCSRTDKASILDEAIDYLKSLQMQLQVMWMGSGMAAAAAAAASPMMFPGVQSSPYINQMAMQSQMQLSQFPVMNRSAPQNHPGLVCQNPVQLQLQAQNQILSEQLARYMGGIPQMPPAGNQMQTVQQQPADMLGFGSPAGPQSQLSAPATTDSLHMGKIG


Experiments:
GST-PIF4 bHLH [1] = biological target: T1, GST-PIF4 bHLH; experiment: EMSA; Chemiluminescent EMSA Kit (Beyotime), manufacturer's protocol; buffer, salt, pH and temperature not stated; details: protein: recombinant; tags: N-terminal GST (pGEX); chain copies: 2; label: 5' biotin; blunt
GST-PIF5 [2] = biological target: T2, GST-PIF5; experiment: as above; details: protein: recombinant; tags: N-terminal GST (pGEX); chain copies: 2; label: 5' biotin; blunt
GST-PIF4 bHLH [3] = biological target: T1, GST-PIF4 bHLH; experiment: competition; increasing unlabeled competitor against labeled N1; Chemiluminescent EMSA Kit (Beyotime), manufacturer's protocol; buffer, salt, pH and temperature not stated; details: protein: recombinant; tags: N-terminal GST (pGEX); chain copies: 2; label: none; blunt
GST-PIF5 [4] = biological target: T2, GST-PIF5; experiment: as above; details: protein: recombinant; tags: N-terminal GST (pGEX); chain copies: 2; label: none; blunt

Row | Binder | binding result (GST-PIF4 bHLH [1]) | binding result (GST-PIF5 [2]) | binding result (GST-PIF4 bHLH [3]) | binding result (GST-PIF5 [4])
1 | ERF1 G-box probe (dsDNA) DNA 1: GAGCCAAAAACTTTGAACACGTGCGGGATATCAAATAATCA DNA 2: TGATTATTTGATATCCCGCACGTGTTCAAAGTTTTTGGCTC | binds | binds |  | 
2 | ERF1 competitor (dsDNA) DNA 1: GAGCCAAAAACTTTGAACACGTGCGGGATATCAAATAATCA DNA 2: TGATTATTTGATATCCCGCACGTGTTCAAAGTTTTTGGCTC |  |  | binds | binds
